Results from patent publication US20200109196A1 (MOGAM INSTITUTE FOR BIOMEDICAL RESEARCH, published 2020).

Key:
[1] = molecular target: T1, recombinant human CEACAM-1/CD66a protein Bulk (R&D systems; Cat. No. 2244-CM) (human, UniProt P13688 35-428); experiment: ELISA, coated antigen, anti-human IgG Fab-HRP
T1 construct: Same catalogue number as HCCM1, coated as a separate antigen ('bulk'); also called HCCM1 (bulk)
T1 sequence (looked up): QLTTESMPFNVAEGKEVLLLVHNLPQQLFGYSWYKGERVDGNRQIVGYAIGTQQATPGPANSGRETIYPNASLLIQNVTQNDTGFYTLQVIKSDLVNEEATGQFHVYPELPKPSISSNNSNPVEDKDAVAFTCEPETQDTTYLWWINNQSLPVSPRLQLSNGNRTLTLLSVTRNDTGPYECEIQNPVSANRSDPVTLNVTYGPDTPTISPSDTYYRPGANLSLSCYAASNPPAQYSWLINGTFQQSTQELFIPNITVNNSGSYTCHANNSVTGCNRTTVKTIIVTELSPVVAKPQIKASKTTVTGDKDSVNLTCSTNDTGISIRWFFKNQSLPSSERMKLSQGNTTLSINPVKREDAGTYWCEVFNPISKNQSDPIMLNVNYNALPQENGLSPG

[2] = molecular target: T2, recombinant human CEACAM-5/CD66e protein (R&D systems; Cat. No. 4128-CM) (human, UniProt P06731 35-685); experiment: ELISA on coated antigen (0.25 µg/ml), HRP anti-human IgG Fab, OD450
T2 construct: Bought protein; also called HCCM5
T2 sequence (looked up): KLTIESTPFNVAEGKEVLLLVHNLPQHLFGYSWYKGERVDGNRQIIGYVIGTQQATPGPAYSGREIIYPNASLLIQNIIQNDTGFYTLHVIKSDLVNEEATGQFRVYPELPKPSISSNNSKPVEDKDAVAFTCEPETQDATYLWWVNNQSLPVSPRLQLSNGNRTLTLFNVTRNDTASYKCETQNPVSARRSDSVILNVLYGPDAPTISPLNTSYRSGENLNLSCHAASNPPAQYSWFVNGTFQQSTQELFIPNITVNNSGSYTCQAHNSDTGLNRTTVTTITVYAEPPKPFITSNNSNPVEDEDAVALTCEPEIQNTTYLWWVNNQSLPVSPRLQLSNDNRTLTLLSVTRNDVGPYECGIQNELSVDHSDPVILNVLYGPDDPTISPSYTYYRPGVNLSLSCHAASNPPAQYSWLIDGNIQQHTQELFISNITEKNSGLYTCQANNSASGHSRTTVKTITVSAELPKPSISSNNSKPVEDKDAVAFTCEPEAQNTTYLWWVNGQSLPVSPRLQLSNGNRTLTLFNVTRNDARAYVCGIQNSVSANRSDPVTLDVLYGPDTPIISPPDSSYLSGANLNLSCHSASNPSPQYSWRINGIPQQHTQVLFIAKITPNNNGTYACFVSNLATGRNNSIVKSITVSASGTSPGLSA
Source text: (§1) All of the recombinant human CEACAM-1/CD66a protein (R&D systems; Cat. No. 2244-CM, HCCM1), recombinant human CEACAM-5/CD66e protein (R&D systems; Cat. No. 4128-CM, HCCM5), recombinant human CEACAM-6/CD66c protein (R&D systems; Cat. No. 3934-CM, HCCM6), recombinant human CEACAM-3/CD66d protein (Sino Biological; Cat. No. 11933-H08H, HCCM3), recombinant mouse PD-1 Fc chimeric protein (R&D systems; Cat. No. 1021-PD, mPD-1-Fc), recombinant CEACAM1-Fc (IgG4) protein (Mogam, in-house production, HCCM1-Fc), recombinant human CEACAM-1/CD66a protein Bulk (R&D systems; Cat. No. 2244-CM, HCCM1 (bulk)) and mouse CEACAM1/CD66a protein (Sino Biological; Cat. No. 50571-M08H, mouse CCM1) (2.5 μg each) were dissolved in 10 ml of PBS, respectively and dispensed into a 96-well plate (Nunc; Cat. No. 467679) at 100 μl/well, which was incubated overnight at 4° C. Thereafter, each well was treated with 300 μl of 1% (v/v) bovine serum albumin, which was incubated at 37° C. for 1 hour.
(§2) The diluted antibodies were dispensed into each well coated with each protein at 100 μl/well, which was incubated at 37° C. for 1 hour. Then, each well was washed 3 times with a washing buffer prepared by diluting 10 μl of Tween 20 (Sigma-Aldrich; Cat. No. P9146) in 990 μl of PBS. Thereafter, 2 μl of HRP-conjugated human anti-IgG-Fab antibody (anti-human IgG Fab; Sigma; Cat. No. A0293) was diluted in 10 ml of PBS, added to the wells at 100 μl/well, and incubated for 1 hour.
(§3) After completion of the reaction, the wells were washed three times with the washing buffer, and 100 μl of TMB solution was added to each well to induce color development. Then, 100 μl of 2 M H₂SO₄ was added to each well to stop the reaction, and the absorbance was measured at a wavelength of 450 nm.

[3] = molecular target: T3, recombinant human CEACAM-3/CD66d protein (Sino Biological; Cat. No. 11933-H08H) (human, UniProt P40198 35-155); experiment: as above
T3 construct: Bought protein; also called HCCM3
T3 sequence (looked up): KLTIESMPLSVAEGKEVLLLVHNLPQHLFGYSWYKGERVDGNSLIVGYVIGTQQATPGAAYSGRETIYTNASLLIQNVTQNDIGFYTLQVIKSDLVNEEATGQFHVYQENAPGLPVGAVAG
Source text: as §1, §2, §3

B1: C15 (antibody, human IgG4 S228P, lambda, V domains shown)
VH: EVQLLESGGGLVQPGGSLRLSCAASGFTFSSYSMSWVRQAPGKGLEWVSSISPNGGNKYYADSVKGRFTISRDNSKNTLYLQMNSLGAEDTAVYYCAKDPYNIYQPLFDYWGQGTLVTVSS
VL: QSVLTQPLSASGTPGQRVTISCSGSSSNIGNNYVNWYQQLPGTAPKLLIYANSNRPSGVPDRFSGSKSGTSASLAISGLRSEEEADYYCGTWDASLSAYVFGGGTKLTVLG
Question: Which results are given for B1?
Answer: binding result [1]: binds; binding result [2]: no binding (tested: 3 µg/ml (single concentration))

B2: C19 (antibody, human IgG4 S228P, lambda, V domains shown)
VH: EVQLLESGGGLVQPGGSLRLSCAASGFTFSGYAMSWVRQAPGKGLEWVSGIYHDGGSTYYADSVKGRFTISRDNSKNTLYLQMNSLRAEDTAVYYCARVTVLCTTYGCSSYDGMDVWGQGTLVTVSS
VL: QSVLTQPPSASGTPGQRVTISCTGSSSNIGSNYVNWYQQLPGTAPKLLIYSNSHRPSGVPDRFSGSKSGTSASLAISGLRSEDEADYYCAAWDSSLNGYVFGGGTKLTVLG
Question: Does B2 bind [1]?
Answer: binds

Question: Does B2 bind [3]?
Answer: no binding (tested: 3 µg/ml (single concentration))

B3: C18 (antibody, human IgG4 S228P, lambda, V domains shown)
VH: EVQLLESGGGLVQPGGSLRLSCAASGFTFSNYDMSWVRQAPGKGLEWVSGISHSSGSKYYADSVKGRFTISRDNSKNTLYLQMNSLRAEDTAVYYCARDPLPCLIPKCSYYYAMDVWGQGTLVTVSS
VL: QSVLTQPPSAPGTPGQRVTISCSGSSSNIGSNAVTWYQQLPGTAPKLLIYADSHRPSGVPDRFSGSKSGTSASLAISGLRSEDEADYYCGSWDDSLNAYVFGGGTKLTVLG
Question: Does B3 bind [1]?
Answer: binds

Question: Does B3 bind [2]?
Answer: no binding (tested: 3 µg/ml (single concentration))

B4: C26 (antibody, human IgG4 S228P, lambda, V domains shown)
VH: EVQLLESGGGLVQPGGSLRLSCAASGFTFSGYDMSWVRQAPGKGLEWVSWISYGGGSIYYADSVKGRFTISRDNSKNTLYLQMNSLRAEDTAVYYCAKDRLPQKAVRHSYANGMDVWGQGTLVTVSS
VL: QSVLTQPPSASGTPGQRVTISCSGSSSNIGNNYVTWYQQLPGTAPKLLIYADSHRPSGVPDRFSGSKSGTSASLAISGLRSEDEADYYCGAWDYSLSGYVFGGGTKLTVLG
Question: Does B4 bind [3]?
Answer: no binding (tested: 3 µg/ml (single concentration))

Question: Does B4 bind [2]?
Answer: no binding (tested: 3 µg/ml (single concentration))

B5: C22 (antibody, human IgG4 S228P, lambda, V domains shown)
VH: EVQLLESGGGLVQPGGSLRLSCAASGFTFSDYDMSWVRQAPGKGLEWVSMIYSGSSSKYYADSVKGRFTISRDNSKNTLYLQMNSLRAEDTAVYYCAKAPLPFYFRPKSYYYAMDVWGQGTLVTVSS
VL: QSVLTQPPSASGTPGQRVTISCSGSSSNIGSNNVTWYQQLPGTAPKLLIYANSHRPSGVPDRFSGSKSGTSASLAISGLRSEDEADYYCGSWDSSLNAYVFGGGTKLTVLG
Question: Does B5 bind [1]?
Answer: binds

B6: C25 (antibody, human IgG4 S228P, lambda, V domains shown)
VH: EVQLLESGGGLVQPGGSLRLSCAASGFTFSNYAMSWVRQAPGKGLEWVSVISHGGGSIYYADSVKGRLTISRDNSKNTLYLQMNSLRAEDTAVYYCARDPTKGYAPTFDYWGQGTLVTVSS
VL: QSVLTQPPSASGTPGQRVTISCSGSSSNIGNNYVSWYQQLPGTAPKLLIYADSKRPSGVPDRFSGSKSGTSASLAISGLRSEDEADYYCGAWDASLNGYVFGGGTKLTVLG
notes: Made in ExpiHEK293F cells, protein A purified. huIgG4 is the isotype control and anti-huIgG4 the detection reagent; the isotype is not otherwise stated; also called anti-CEACAM1 antibody C25
Question: Does B6 bind [3]?
Answer: no binding (tested: 3 µg/ml (single concentration))

Question: Does B6 bind [2]?
Answer: no binding (tested: 3 µg/ml (single concentration))

B7: C17 (antibody, human IgG4 S228P, lambda, V domains shown)
VH: EVQLLESGGGLVQPGGSLRLSCAASGFTFSDYSMSWVRQAPGKGLEWVSVIYPDDGNTYYADSVKGRFTISRDNSKNTLYLQMNSLRAEDTAVYYCARGSIWWLSLIPSSYNAMDVWGQGTLVAVSS
VL: QSVLTQPPSASGTPGQRVTISCSGSSSNIGNNAVNWYQQLPGTAPKLLIYANSHRPSGVPDRFSGSKSGTSASLAISGLRSEDEADYYCGAWDASLNGYVFGGGTKLTVLG
Question: Does B7 bind [1]?
Answer: binds
